Results: US7579150B1, “Mobile RNA acts as a signal to regulate plant growth and development” (Iowa State University Research Foundation, Inc., priority 2004, dated 2009)

Key:
[1] = target: T1, pBHD9, first amino-terminal 114 aa of POTH1 in pBridge (GAL4 DNA-binding domain fusion) (Solanum tuberosum); assay: in vitro binding protocol (immunoprecipitation of in vitro translated proteins)
T1 construct: also called pBDH9

[2] = target: T2, GAD protein alone (GAL4 activation domain) (UniProt P04386 768-881, limits assumed); assay: immunoprecipitation of in vitro translated 35S-labelled proteins with anti-GAD antibodies
T2 construct: domain: GAD; Negative control of the immunoprecipitation assay
T2 sequence (looked up): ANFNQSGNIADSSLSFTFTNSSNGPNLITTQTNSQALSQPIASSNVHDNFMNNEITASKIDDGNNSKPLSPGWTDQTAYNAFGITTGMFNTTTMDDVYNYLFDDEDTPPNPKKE
Method: In vitro binding experiments were performed as described by Ni et al., "PIF3, a Phytochrome-Interacting Factor Necessary for Normal Photoinduced Signal Transduction, is a Novel Basic Helix-Loop-Helix Protein," *Cell* 95:657-667 (1998), which is hereby incorporated by reference in its entirety. The full-length sequence for POTH1 was cloned into a pET17b/GAD fusion cassette and transcribed under the control of the T7 promoter. The BEL cDNAs were cloned into pGEM11Z vectors and were transcribed under the control of the T7 promoter. ^35S-methionine labeled bait and prey proteins were synthesized using the TnT in vitro transcription-translation kit (Promega) according to the manufacturer's protocols. Each 50 µl TnT reaction contained 2.0 µg of template plasmid DNA and […] (20 µCi) of labeled ^35S-methionine. The POTH1:GAD/BEL complex was immunoprecipitated with anti-GAD antibodies (Santa Cruz Biotechnology, CA). The proteins from the pellet (one-half the fraction) and for the prey (one-fourth of the reaction volume) were resolved on a 10% SDS-PAGE gel and visualized by autoradiography.

[3] = target: T3, StBEL-05 in pBridge (GAL4 DNA-binding domain fusion) (Solanum tuberosum); assay: yeast two-hybrid, reciprocal orientation
T3 construct: Range derived as for m2

[4] = target: T4, StBEL-05/POTH1 heterodimer (Solanum tuberosum); assay: EMSA; deduced consensus TGA(C/G)(T/A)TGAC; settings: tags: GST cleaved by Factor Xa
T4 chain 1: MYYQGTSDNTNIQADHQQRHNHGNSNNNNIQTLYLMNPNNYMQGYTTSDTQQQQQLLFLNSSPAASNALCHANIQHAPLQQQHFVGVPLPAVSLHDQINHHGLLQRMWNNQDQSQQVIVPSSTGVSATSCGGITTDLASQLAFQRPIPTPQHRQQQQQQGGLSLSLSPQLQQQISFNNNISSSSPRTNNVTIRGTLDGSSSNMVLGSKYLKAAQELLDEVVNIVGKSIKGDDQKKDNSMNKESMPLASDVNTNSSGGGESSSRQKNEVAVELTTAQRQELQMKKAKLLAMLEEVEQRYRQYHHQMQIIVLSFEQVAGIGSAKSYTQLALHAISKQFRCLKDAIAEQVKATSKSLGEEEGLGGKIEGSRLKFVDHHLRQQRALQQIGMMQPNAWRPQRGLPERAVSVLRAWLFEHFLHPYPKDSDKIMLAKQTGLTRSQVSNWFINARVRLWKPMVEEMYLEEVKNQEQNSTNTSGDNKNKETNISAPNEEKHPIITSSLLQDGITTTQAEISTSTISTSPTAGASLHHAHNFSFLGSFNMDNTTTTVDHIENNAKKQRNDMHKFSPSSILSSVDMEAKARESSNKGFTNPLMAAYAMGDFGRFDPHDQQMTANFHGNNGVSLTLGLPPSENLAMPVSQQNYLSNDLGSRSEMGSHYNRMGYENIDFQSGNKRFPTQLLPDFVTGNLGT
T4 chain 2: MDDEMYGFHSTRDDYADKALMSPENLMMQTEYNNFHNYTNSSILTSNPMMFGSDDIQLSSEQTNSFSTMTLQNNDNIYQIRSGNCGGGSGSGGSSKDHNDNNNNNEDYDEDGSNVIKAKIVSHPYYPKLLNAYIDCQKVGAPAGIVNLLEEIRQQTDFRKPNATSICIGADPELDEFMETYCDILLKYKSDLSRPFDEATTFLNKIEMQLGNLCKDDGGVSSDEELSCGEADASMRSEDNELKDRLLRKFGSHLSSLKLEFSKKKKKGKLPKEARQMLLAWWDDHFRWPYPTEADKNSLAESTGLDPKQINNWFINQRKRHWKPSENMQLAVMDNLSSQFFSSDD

POTH1 = target: T5, POTH1 (Solanum tuberosum); assay: EMSA; settings: tags: GST fusion from pGEX-5X-2, GST cleaved by Factor Xa
T5 chain: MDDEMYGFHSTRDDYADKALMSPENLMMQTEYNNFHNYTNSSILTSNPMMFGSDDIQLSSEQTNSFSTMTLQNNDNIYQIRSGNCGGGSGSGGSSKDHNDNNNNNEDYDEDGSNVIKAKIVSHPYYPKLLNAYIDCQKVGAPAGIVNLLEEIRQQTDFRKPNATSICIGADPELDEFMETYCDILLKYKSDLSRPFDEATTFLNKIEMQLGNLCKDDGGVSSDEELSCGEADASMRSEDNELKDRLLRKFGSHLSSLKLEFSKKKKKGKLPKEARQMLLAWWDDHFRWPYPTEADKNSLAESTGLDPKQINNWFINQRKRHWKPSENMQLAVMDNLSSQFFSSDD

StBEL-05 [5] = target: T6, StBEL-05 (Solanum tuberosum); assay: EMSA; settings: tags: GST fusion from pGEX-5X-2, GST cleaved by Factor Xa
T6 chain: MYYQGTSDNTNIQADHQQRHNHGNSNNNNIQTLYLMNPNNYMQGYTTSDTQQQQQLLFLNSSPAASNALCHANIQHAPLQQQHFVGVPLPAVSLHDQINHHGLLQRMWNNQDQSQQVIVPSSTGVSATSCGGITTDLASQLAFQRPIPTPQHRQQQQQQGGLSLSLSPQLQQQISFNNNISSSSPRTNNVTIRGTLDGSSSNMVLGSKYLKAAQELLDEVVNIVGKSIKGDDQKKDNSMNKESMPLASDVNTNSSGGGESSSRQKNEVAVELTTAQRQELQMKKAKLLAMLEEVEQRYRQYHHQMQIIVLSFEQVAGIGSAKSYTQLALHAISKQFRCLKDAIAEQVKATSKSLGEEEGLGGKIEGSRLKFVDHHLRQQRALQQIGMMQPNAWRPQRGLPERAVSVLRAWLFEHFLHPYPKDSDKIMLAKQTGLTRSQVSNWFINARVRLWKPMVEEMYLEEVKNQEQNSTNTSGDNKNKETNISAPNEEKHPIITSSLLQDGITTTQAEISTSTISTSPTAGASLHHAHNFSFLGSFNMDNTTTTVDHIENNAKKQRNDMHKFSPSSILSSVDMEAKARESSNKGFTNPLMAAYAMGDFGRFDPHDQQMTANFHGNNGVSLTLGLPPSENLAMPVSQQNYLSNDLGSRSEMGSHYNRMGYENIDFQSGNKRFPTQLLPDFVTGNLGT

StBEL-05 [6] = assay: Yeast two-hybrid interaction of POTH1 deletion constructs with StBEL-05; type: cell-based, potato; settings: yeast strain AH109
From the text: The Matchmaker two-hybrid system (Clontech, CA) was used for the yeast two-hybrid screen. Yeast transformation and plasmid rescue into DH5-a E. coli cells were according to the manufacturer's instructions. Full-length POTH1 was cloned into the pBridge (Clontech, CA) vector and used as bait to screen the potato (S. tuberosum ‘Desireé’) stolon cDNA library in pAD-GAL4-2.1 (Stratagene, Calif.). Positive interactions were confirmed by cotransforming yeast strain AH109 with each purified pAD plasmid and pBridge: POTH1 and plating on -leucine/-tryptophan (transformation control) and -leucine/-tryptophan/-histidine/-adenine (selection) nutrient medium. Induction of the AH109 reporter gene, lacZ, was measured with a yeast β-galactosidase assay kit (Pierce Chemicals). β-galactosidase activity (FIG. 9B) was determined from a known density of yeast cells and calculated as 1000×OD420/time of color reaction (minutes)×volume of yeast culture (ml)×OD600.
The StBEL-05 deletion constructs were amplified by PCR, then cloned into the vector, pGAD, in-frame with the GAL4 activation domain. POTH1 deletion constructs were amplified by PCR, and cloned into pBridge (Clontech) in-frame with the GAL4 binding domain. Sequencing of selected cDNAs and constructs was performed at the Iowa State University DNA Facility. […]

B1: StBEL-05 protein synthesized in vitro from pGEM11Z (other)
chain: MYYQGTSDNTNIQADHQQRHNHGNSNNNNIQTLYLMNPNNYMQGYTTSDTQQQQQLLFLNSSPAASNALCHANIQHAPLQQQHFVGVPLPAVSLHDQINHHGLLQRMWNNQDQSQQVIVPSSTGVSATSCGGITTDLASQLAFQRPIPTPQHRQQQQQQGGLSLSLSPQLQQQISFNNNISSSSPRTNNVTIRGTLDGSSSNMVLGSKYLKAAQELLDEVVNIVGKSIKGDDQKKDNSMNKESMPLASDVNTNSSGGGESSSRQKNEVAVELTTAQRQELQMKKAKLLAMLEEVEQRYRQYHHQMQIIVLSFEQVAGIGSAKSYTQLALHAISKQFRCLKDAIAEQVKATSKSLGEEEGLGGKIEGSRLKFVDHHLRQQRALQQIGMMQPNAWRPQRGLPERAVSVLRAWLFEHFLHPYPKDSDKIMLAKQTGLTRSQVSNWFINARVRLWKPMVEEMYLEEVKNQEQNSTNTSGDNKNKETNISAPNEEKHPIITSSLLQDGITTTQAEISTSTISTSPTAGASLHHAHNFSFLGSFNMDNTTTTVDHIENNAKKQRNDMHKFSPSSILSSVDMEAKARESSNKGFTNPLMAAYAMGDFGRFDPHDQQMTANFHGNNGVSLTLGLPPSENLAMPVSQQNYLSNDLGSRSEMGSHYNRMGYENIDFQSGNKRFPTQLLPDFVTGNLGT
modifications: 35S-methionine labelled (in vitro translation)
notes: BEL cDNA cloned into pGEM11Z under the T7 promoter; also called p11Z-5
[1]
  binding result: no binding
[2]
  binding result: no binding

B2: pBHD9 construct (first 114 aa of POTH1) cloned into the pGAD vector (GAL4 activation domain fusion) (other, not shown: large carriers)
chain: MDDEMYGFHSTRDDYADKALMSPENLMMQTEYNNFHNYTNSSILTSNPMMFGSDDIQLSSEQTNSFSTMTLQNNDNIYQIRSGNCGGGSGSGGSSKDHNDNNNNNEDYDEDGSN
notes: also called pBDH9 construct in pGAD
[3]
  binding result: no binding

B3: P1 binding site oligo (dsDNA)
DNA 1: TTGACTTGAC
DNA 2: GTCAAGTCAA
[4]
  binding result: binds
POTH1
  binding result: binds
StBEL-05 [5]
  binding result: binds

B4: pBHD-9: POTH1 construct: first amino-terminal 114 aa, no KNOX domain sequence; transcriptional activator alone (protein)
chain: MKLLSSIEQACDICRLKKLKCSKEKPKCAKCLKNNWECRYSPKTKRSPLTRAHLTEVESRLERLEQLFLLIFPREDLDMILKMDSLQDIKALLTGLFVQDNVNKDAVTDRLASVETDMPLTLRQHRISATSSSEESSNKGQRQLTVSMDDEMYGFHSTRDDYADKALMSPENLMMQTEYNNFHNYTNSSILTSNPMMFGSDDIQLSSEQTNSFSTMTLQNNDNIYQIRSGNCGGGSGSGGSSKDHNDNNNNNEDYDEDGSN
StBEL-05 [6]
  interaction with StBEL-05: Interaction with StBEL-05 was observed
